In the supplement of paper PMC10065799, “High-throughput profiling of sequence recognition by tyrosine kinases and SH2 domains using bacterial peptide display” (eLife, 2023):

Key:
AncSZ = assay: phosphorylation enrichment, bacterial display (enrichment ratio); higher = better substrate or ligand; peptides without Tyr show the background
EPHB1 = EPHB1 (UniProt P54762); assay: as above
EPHB2 = EPHB2 (UniProt P29323); assay: as above
FGFR1 = FGFR1 (UniProt P11362); assay: as above
FGFR3 = FGFR3 (UniProt P22607); assay: as above
Fer (mouse) = assay: as above
Fes = Fes (UniProt P07332); assay: as above
Fes, sequence (P07332 whole entry, looked up): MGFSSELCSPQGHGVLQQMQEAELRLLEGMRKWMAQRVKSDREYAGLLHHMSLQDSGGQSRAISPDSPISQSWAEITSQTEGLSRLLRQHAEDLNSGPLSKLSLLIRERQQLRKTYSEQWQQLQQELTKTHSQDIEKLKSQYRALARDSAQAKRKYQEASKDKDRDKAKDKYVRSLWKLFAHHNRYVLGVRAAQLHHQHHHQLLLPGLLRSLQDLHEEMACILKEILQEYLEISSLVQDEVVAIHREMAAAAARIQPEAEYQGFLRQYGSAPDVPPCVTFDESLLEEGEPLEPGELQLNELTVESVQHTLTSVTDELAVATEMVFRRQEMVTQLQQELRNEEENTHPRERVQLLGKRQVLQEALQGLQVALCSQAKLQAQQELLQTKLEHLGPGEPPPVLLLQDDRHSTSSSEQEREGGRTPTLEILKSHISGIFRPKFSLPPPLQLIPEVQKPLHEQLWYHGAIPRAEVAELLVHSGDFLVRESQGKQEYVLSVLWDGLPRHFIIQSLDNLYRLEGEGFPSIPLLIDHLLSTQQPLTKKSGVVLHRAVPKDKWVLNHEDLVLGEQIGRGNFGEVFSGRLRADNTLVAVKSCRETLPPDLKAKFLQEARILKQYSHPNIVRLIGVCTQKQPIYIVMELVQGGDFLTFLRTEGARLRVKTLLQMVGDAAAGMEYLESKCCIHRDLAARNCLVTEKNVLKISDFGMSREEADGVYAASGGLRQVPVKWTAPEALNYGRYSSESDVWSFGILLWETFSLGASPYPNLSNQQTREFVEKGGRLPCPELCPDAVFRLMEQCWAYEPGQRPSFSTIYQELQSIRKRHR

Fyn = Fyn (UniProt P06241); assay: as above
Fyn, sequence (P06241 whole entry, looked up): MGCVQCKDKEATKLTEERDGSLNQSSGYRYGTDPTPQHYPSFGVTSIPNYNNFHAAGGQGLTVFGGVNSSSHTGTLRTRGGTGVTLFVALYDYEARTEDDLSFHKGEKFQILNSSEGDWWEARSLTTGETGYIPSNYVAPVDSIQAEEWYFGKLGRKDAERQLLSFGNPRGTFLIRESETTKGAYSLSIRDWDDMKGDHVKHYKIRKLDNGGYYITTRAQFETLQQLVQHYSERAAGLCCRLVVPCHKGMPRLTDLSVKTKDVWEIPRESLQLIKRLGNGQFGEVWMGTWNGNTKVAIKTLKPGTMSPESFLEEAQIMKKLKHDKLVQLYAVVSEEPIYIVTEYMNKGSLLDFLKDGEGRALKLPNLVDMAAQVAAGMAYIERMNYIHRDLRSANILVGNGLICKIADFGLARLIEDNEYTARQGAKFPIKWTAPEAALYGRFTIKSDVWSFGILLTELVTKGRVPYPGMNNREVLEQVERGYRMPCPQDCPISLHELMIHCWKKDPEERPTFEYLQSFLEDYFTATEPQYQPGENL

Hck = Hck (UniProt P08631); assay: as above
Hck, sequence (P08631 whole entry, looked up): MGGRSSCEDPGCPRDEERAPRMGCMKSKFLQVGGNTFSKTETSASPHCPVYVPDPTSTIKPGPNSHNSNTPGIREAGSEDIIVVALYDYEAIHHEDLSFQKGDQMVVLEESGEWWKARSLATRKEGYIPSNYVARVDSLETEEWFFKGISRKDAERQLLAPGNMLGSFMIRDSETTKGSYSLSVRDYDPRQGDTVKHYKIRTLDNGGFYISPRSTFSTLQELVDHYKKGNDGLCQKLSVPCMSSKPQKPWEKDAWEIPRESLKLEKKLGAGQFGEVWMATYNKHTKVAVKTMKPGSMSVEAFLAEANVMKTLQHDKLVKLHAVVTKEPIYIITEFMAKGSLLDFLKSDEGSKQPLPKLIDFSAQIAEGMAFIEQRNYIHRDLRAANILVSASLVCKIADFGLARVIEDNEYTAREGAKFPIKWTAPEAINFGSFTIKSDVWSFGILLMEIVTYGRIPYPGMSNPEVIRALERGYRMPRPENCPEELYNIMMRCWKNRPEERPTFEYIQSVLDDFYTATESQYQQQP

Jak2 = Jak2 (UniProt O60674); assay: as above
Jak2, sequence (O60674 whole entry, looked up): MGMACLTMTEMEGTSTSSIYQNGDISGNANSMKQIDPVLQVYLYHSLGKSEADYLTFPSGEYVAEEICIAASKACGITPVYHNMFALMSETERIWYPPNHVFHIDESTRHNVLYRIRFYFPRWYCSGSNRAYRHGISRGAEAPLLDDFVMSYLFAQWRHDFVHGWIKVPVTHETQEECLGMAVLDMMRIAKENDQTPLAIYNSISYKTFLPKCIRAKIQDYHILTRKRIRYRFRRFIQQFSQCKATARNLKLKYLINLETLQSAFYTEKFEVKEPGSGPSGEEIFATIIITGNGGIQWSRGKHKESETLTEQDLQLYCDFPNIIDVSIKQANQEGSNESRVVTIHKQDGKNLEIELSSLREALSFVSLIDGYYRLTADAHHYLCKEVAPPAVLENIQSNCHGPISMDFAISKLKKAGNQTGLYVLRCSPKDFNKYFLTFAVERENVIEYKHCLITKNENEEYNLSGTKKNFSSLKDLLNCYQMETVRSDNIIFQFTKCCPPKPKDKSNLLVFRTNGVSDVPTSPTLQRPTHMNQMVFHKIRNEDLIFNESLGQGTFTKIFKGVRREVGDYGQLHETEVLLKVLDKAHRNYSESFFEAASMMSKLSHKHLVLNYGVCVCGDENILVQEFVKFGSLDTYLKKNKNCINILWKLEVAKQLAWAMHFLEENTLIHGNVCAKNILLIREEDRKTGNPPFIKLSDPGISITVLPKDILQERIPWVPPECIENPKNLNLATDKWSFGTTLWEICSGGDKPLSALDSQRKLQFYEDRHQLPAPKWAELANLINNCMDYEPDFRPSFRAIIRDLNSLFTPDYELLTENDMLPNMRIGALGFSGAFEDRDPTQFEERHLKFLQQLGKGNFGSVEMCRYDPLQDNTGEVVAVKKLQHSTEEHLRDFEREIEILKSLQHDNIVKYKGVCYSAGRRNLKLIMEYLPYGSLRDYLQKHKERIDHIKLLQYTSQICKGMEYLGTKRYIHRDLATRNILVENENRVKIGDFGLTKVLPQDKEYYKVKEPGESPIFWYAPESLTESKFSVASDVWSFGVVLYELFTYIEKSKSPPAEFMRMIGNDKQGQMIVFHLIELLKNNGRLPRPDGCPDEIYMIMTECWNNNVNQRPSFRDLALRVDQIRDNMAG

MERTK = MERTK (UniProt Q12866); assay: as above
c-Abl (mouse) = assay: as above
c-Src = assay: as above
Grb2 SH2 = Grb2 SH2 (UniProt P62993); assay: SH2 binding enrichment of the phosphorylated peptide, bacterial display (enrichment ratio); higher = better substrate or ligand; peptides without Tyr show the background
SHP2-C SH2 = assay: as above
c-Src SH2 = assay: as above
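For SH2 binding enrichment of the phosphorylated peptide, bacterial display in this document: peptide library displayed on the E. coli surface as eCPX fusions, selected cells deep-sequenced, score is each peptide's frequency after selection divided by its frequency in the input.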
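For phosphorylation enrichment, bacterial display in this document: 11-residue human phosphosite peptides and single-mutation variants displayed on the E. coli surface, counted by deep sequencing, each peptide's frequency after selection divided by its frequency in the unselected input library; frequency after pTyr selection over input frequency; kinase dosed for 20-30% of maximal phosphorylation in three min.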

EPHB2, sequence (P29323 whole entry, looked up): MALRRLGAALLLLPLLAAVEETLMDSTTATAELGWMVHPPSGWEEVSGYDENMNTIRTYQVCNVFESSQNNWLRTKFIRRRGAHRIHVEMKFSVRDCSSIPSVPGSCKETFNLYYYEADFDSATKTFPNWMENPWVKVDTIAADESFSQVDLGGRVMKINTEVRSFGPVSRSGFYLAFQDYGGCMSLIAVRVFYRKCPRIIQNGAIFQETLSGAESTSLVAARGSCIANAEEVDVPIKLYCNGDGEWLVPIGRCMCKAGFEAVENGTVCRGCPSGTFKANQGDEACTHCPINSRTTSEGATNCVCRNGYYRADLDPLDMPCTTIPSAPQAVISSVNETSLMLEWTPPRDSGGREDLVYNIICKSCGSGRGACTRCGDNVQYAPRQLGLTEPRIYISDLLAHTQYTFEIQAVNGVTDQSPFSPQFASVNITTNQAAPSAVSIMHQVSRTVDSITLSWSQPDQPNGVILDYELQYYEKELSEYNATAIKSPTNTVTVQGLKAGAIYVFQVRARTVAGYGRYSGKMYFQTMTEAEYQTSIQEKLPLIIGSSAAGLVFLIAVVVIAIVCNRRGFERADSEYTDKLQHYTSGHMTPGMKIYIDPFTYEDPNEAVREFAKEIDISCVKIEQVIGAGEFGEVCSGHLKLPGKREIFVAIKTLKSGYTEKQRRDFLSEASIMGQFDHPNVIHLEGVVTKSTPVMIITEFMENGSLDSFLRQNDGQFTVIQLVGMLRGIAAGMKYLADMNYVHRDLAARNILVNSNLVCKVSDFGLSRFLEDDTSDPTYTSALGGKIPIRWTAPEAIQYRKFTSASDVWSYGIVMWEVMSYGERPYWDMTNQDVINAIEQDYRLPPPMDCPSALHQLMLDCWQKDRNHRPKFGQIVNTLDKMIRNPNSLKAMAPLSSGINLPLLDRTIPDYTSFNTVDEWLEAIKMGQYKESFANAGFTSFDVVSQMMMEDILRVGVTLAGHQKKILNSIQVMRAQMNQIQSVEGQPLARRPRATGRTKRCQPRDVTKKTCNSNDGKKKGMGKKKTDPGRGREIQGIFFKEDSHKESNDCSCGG
FGFR1, sequence (P11362 whole entry, looked up): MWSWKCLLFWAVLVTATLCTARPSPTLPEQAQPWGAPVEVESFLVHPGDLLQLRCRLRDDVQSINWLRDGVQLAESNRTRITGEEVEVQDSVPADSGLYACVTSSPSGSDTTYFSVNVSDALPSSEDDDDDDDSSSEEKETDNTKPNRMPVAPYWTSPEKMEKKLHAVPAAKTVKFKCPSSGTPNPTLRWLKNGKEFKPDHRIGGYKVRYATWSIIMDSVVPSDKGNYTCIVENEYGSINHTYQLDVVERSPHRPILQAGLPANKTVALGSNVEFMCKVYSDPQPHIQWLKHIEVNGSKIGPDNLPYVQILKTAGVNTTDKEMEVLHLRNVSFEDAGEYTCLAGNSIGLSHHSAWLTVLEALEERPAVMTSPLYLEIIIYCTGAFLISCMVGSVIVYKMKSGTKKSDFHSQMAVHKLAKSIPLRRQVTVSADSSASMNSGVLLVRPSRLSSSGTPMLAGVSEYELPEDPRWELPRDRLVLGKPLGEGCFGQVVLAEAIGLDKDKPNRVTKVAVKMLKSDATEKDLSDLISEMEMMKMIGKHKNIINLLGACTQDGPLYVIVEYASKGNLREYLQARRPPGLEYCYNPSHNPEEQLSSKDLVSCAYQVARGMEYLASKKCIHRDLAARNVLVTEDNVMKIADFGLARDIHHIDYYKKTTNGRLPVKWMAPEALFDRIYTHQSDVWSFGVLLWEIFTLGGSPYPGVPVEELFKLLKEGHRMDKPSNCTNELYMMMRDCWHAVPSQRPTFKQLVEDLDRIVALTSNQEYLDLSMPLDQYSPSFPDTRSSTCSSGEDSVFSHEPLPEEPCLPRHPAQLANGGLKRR

SH2 binding enrichment (Grb2 SH2) | SH2 binding enrichment (SHP2-C SH2) | SH2 binding enrichment (c-Src SH2) | Sequence | phosphorylation enrichment (AncSZ) | phosphorylation enrichment (EPHB1) | phosphorylation enrichment (EPHB2) | phosphorylation enrichment (FGFR1) | phosphorylation enrichment (FGFR3) | phosphorylation enrichment (Fer (mouse)) | phosphorylation enrichment (Fes) | phosphorylation enrichment (Fyn) | phosphorylation enrichment (Hck) | phosphorylation enrichment (Jak2) | phosphorylation enrichment (MERTK) | phosphorylation enrichment (c-Abl (mouse)) | phosphorylation enrichment (c-Src)
0.8 | 0.549 | 0.536 | ALARKYHGGGG [HBB_Y146_H144R] | 0.372 | 0.418 | 0.307 | 0.353 | 0.33 | 0.444 | 0.408 | 0.365 | 0.317 | 0.507 | 0.337 | 0.407 | 0.435
0.713 | 0.714 | 0.477 | GVYSRHFTTYD [CLCA1_Y661_Y661H] | 0.823 | 0.495 | 0.473 | 0.389 | 0.508 | 0.642 | 0.657 | 0.648 | 1.31 | 0.507 | 0.569 | 0.359 | 0.768
0.634 | 0.467 | 0.533 | PFTRNYFVQAV [CYBA_Y87_R90Q_YF] | 0.963 | 0.601 | 0.747 | 1.16 | 0.905 | 1.25 | 1.2 | 0.943 | 0.979 | 0.6 | 0.763 | 0.65 | 0.353
1.02 | 0.873 | 0.741 | ELTTCYRKKCC [CCBE1_Y70] | 0.817 | 0.441 | 0.48 | 0.485 | 0.507 | 0.393 | 0.785 | 0.444 | 0.396 | 0.652 | 0.413 | 0.559 | 0.379
0.708 | 0.69 | 0.493 | TEGNEYVFRVA | 1.08 | 0.593 | 0.627 | 0.647 | 0.822 | 0.44 | 1.28 | 0.583 | 0.486 | 0.949 | 0.421 | 0.647 | 0.528
1.74 | 1.79 | 1.73 | RVLHNYLVWRV [ECEL1_Y400] | 2.51 | 1.6 | 1.12 | 1.4 | 1.7 | 1.12 | 1.93 | 0.867 | 1.01 | 1.07 | 0.79 | 0.762 | 0.526
0.793 | 1.22 | 0.567 | IHHIDYYKKTT [FGFR1_Y653] | 0.783 | 0.408 | 0.544 | 0.473 | 0.484 | 0.961 | 0.741 | 0.381 | 0.425 | 0.534 | 0.508 | 0.524 | 0.487
1.01 | 0.768 | 1.23 | EGNEQYEGYCV [GRIA3_Y451_R450Q] | 1.19 | 0.556 | 0.592 | 0.557 | 0.691 | 1.11 | 1.05 | 0.567 | 0.604 | 0.942 | 0.422 | 1.26 | 0.506
0.734 | 0.445 | 3.41 | ENKGVYVPMSG [IVD_Y277_L279P] | 0.599 | 0.411 | 0.383 | 0.48 | 0.531 | 0.405 | 0.559 | 0.367 | 0.519 | 0.517 | 0.451 | 0.503 | 0.449
0.785 | 1.46 | 0.445 | FLGEEYVKAVG [TF_Y674_YF] | 0.842 | 0.489 | 0.453 | 0.453 | 0.582 | 0.58 | 0.879 | 0.373 | 0.405 | 0.853 | 0.412 | 0.598 | 0.404
0.713 | 0.682 | 0.436 | VDLIVYLWTNP [TK2_Y181_R183W] | 1.15 | 0.643 | 0.501 | 0.483 | 0.955 | 0.841 | 1.29 | 0.421 | 0.456 | 1.21 | 0.397 | 0.897 | 0.423
1.56 | 1.25 | 1.55 | RAILLYEYVGK [NATD1_Y45_V42I] | 3.29 | 33.9 | 46.9 | 4.68 | 5.74 | 26.3 | 7.22 | 11.2 | 15.5 | 2.34 | 19.1 | 2.4 | 11.1
0.834 | 0.661 | 0.458 | DPLLTHRFPPK [LMNA_Y481_Y481H] | 0.434 | 0.288 | 0.242 | 0.459 | 0.43 | 0.36 | 0.521 | 0.411 | 0.381 | 0.571 | 0.421 | 0.395 | 0.406
1 | 0.808 | 0.473 | EYQKKYSDADI [CKAP5_Y1860_K1857Q] | 0.913 | 0.491 | 0.481 | 0.46 | 0.589 | 0.597 | 0.998 | 0.37 | 0.383 | 0.841 | 0.432 | 0.706 | 0.45
0.831 | 1.36 | 0.631 | FFFDLYGGEKF [PTPN11_Y66_D61Y_YF] | 0.923 | 0.53 | 0.418 | 0.415 | 0.534 | 0.418 | 0.979 | 0.66 | 0.981 | 0.993 | 0.371 | 0.665 | 1.15
0.877 | 0.662 | 0.461 | AVDMTYDGHPV [FLNB_Y1020_V1018M] | 1.19 | 1.67 | 4.79 | 0.576 | 0.737 | 0.89 | 0.926 | 3.3 | 3.87 | 0.765 | 0.593 | 0.768 | 3.61
1.06 | 0.87 | 0.809 | KHCEDYVCSFN [DSC1_Y846_YF] | 1.15 | 0.564 | 0.522 | 0.572 | 0.681 | 0.525 | 1.08 | 0.473 | 0.446 | 1.13 | 0.424 | 0.719 | 0.829

SH2 binding enrichment (Grb2 SH2) | SH2 binding enrichment (SHP2-C SH2) | SH2 binding enrichment (c-Src SH2) | Sequence | phosphorylation enrichment (AncSZ) | phosphorylation enrichment (EPHB1) | phosphorylation enrichment (EPHB2) | phosphorylation enrichment (FGFR1) | phosphorylation enrichment (FGFR3) | phosphorylation enrichment (Fer (mouse)) | phosphorylation enrichment (Fes) | phosphorylation enrichment (Fyn) | phosphorylation enrichment (Hck) | phosphorylation enrichment (Jak2) | phosphorylation enrichment (MERTK) | phosphorylation enrichment (c-Abl (mouse)) | phosphorylation enrichment (c-Src)
1.15 | 0.456 | 0.527 | RLNCIYYKDQT [RS1_Y165_W163C] | 1.01 | 0.722 | 0.639 | 0.971 | 0.751 | 0.497 | 1.16 | 0.878 | 0.889 | 1.21 | 1.57 | 0.897 | 1.74
0.695 | 0.52 | 0.367 | STEEQYRICQV [EFHC1_Y115_R118C] | 1.09 | 0.71 | 0.629 | 0.599 | 0.848 | 0.598 | 1.53 | 0.541 | 0.52 | 1.08 | 0.492 | 0.999 | 0.566
0.776 | 0.683 | 0.507 | QRRYLYYYSYL [PTEN_Y176_V175L] | 1.14 | 1.19 | 1.12 | 4.64 | 3.52 | 0.671 | 0.887 | 1.62 | 2.2 | 4.97 | 7.18 | 0.494 | 2.84
0.798 | 0.506 | 0.615 | YSGDCYRIQGR [DDR2_Y741_Y740C] | 0.818 | 0.468 | 0.514 | 0.483 | 0.715 | 0.49 | 0.83 | 0.475 | 0.564 | 0.735 | 1.25 | 0.552 | 0.374
1.89 | 1.4 | 0.841 | LSGVIYVILRK [PMP22_Y153] | 1.01 | 0.46 | 0.23 | 0.443 | 1.11 | 0.504 | 0.823 | 0.279 | 0.513 | 0.633 | 0.364 | 0.923 | 0.484
1.01 | 0.612 | 0.446 | EAVKNYTEKRG [PBRM1_Y672_D674E] | 0.626 | 0.318 | 0.344 | 0.394 | 0.449 | 0.564 | 0.514 | 0.328 | 0.388 | 0.478 | 0.384 | 0.433 | 0.335
3.9 | 1.16 | 0.562 | ELTAKYLNFFQ [P3H4_Y181_YF] | 0.871 | 0.564 | 0.479 | 0.438 | 0.681 | 0.517 | 1.05 | 0.458 | 0.396 | 0.908 | 0.385 | 0.765 | 0.454
0.827 | 0.745 | 0.636 | FSTDCYRVGGH [NTRK2_Y707_Y706C_YF] | 1.08 | 0.592 | 0.576 | 0.599 | 0.638 | 0.452 | 1.12 | 0.545 | 0.646 | 1.05 | 0.652 | 0.934 | 0.608
0.895 | 0.738 | 0.476 | KDHPDYKYQAR [SOX10_Y171_P175A] | 0.606 | 0.427 | 0.416 | 0.416 | 0.563 | 0.448 | 0.696 | 0.434 | 0.496 | 0.58 | 0.39 | 0.609 | 0.415
1.01 | 0.813 | 0.508 | SLDHPFEKPRK [INAVA_Y333_Y333F] | 0.589 | 0.317 | 0.433 | 0.388 | 0.524 | 0.3 | 0.749 | 0.721 | 0.376 | 0.663 | 0.365 | 0.61 | 0.436
1.84 | 1.15 | 0.856 | CKRQFYLYKGK [RSPO4_Y112] | 0.836 | 0.333 | 0.49 | 0.427 | 0.704 | 0.431 | 0.926 | 0.432 | 0.43 | 0.746 | 0.331 | 0.438 | 0.312
1.85 | 1.39 | 0.793 | ALVFLSFCIIF [SIGLEC12_Y494_Y494S] | 1.05 | 0.329 | 0.489 | 0.45 | 0.603 | 0.39 | 0.865 | 0.496 | 0.466 | 0.871 | 0.449 | 0.974 | 0.439
1.24 | 1.1 | 0.793 | IKNSGYISRFL [EIF2AK3_Y585_YF] | 0.564 | 0.366 | 0.455 | 0.367 | 0.495 | 0.286 | 0.669 | 0.348 | 0.379 | 0.61 | 0.44 | 0.537 | 0.43
0.674 | 0.591 | 0.586 | TLQSMYGCDLG [HLA-B_Y123_V127L] | 1.18 | 0.836 | 0.522 | 0.491 | 0.858 | 0.659 | 1.38 | 0.576 | 0.591 | 1.06 | 0.518 | 1.06 | 0.597
0.861 | 0.762 | 0.653 | KFANSYRMEPL [TCTE3_Y87] | 0.574 | 0.43 | 0.409 | 0.443 | 0.491 | 0.465 | 0.623 | 0.47 | 0.414 | 0.774 | 0.417 | 0.534 | 0.528
0.97 | 0.744 | 0.6 | EEGEEYGGGGG [TUBA1A_Y451] | 1.19 | 0.638 | 0.769 | 0.604 | 0.701 | 0.552 | 1.32 | 0.557 | 0.602 | 0.946 | 0.485 | 0.815 | 0.531
